In PMC3277711 (Cell, 2012):

B1: chicken CENP-S-X complex (full-length CENP-S with CENP-X) (complex)
chain 1: MEAAGGEQRELLIQRLRAAVHYTTGCLCQDVAEDKGVLFSKQTVAAISEITFRQCENFARDLEMFARHAKRSTITSEDVKLLARRSNSLLKYITQKSDELASSNMEQKEKKKKKSSAAKGRKTEENETPVTESEDSNMA
chain 2: MEEREGGFRKETVERLLRLHFRDGRTRVNGDALLLMAELLKVFVREAAARAARQAQAEDLEKVDIEHVEKVLPQLLLDFVV
B2: chicken CENP-SΔC-X complex (complex)
chain 1: MEAAGGEQRELLIQRLRAAVHYTTGCLCQDVAEDKGVLFSKQTVAAISEITFRQCENFARDLEMFARHAKRSTITSEDVKLLARRSNSLLKYITQKSDELASSNME
chain 2: B1 chain 2

Legend:
SEC = target: the molecule itself; assay: SEC
[1] = target: chicken CENP-T-W complex (CENP-T histone fold with CENP-W) (chicken) (UniProt F1NPG5); assay: SEC
crystal structure = target: the molecule itself; assay: crystal structure

Binder | stoichiometry N (SEC) | stoichiometry N (CENP-S-X dimer per CENP-T-W dimer) [1] | stoichiometry N (crystal structure)
B1 | 2 CENP-S-X heterodimers in the oligomer | 1 | –
B2 | – | – | 2 CENP-S-X heterodimers in the oligomer
